Assay results from patent US20210115127A1 (SURFACE ONCOLOGY, published 2021).
Numbering of substitutions follows the chain as printed.

T1: gp130 (human, UniProt P40189 23-619, limits assumed)
T1 construct: also called IL6ST; Interleukin-6 Signal Transducer
T1 sequence: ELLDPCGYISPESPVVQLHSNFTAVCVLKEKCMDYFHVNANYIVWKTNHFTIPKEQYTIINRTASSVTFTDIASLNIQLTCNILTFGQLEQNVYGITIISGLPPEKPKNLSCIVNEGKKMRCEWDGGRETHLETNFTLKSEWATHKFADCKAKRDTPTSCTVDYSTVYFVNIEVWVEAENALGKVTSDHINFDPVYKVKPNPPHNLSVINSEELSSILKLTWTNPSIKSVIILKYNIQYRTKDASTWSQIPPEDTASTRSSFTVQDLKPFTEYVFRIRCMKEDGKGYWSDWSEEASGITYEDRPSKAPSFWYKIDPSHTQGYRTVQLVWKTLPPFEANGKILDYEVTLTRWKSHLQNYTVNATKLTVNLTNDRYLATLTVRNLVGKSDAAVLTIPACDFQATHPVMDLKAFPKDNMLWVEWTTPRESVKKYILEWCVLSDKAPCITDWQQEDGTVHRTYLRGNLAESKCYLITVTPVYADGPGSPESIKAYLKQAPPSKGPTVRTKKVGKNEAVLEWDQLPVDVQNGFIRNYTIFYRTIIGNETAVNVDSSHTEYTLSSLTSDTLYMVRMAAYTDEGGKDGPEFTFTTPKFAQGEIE

T2: IL-27RA (WSX-1) (human, UniProt Q6UWB1 33-516, limits assumed)
T2 construct: also called IL-27Rα; IL-27 receptor subunit alpha
T2 sequence: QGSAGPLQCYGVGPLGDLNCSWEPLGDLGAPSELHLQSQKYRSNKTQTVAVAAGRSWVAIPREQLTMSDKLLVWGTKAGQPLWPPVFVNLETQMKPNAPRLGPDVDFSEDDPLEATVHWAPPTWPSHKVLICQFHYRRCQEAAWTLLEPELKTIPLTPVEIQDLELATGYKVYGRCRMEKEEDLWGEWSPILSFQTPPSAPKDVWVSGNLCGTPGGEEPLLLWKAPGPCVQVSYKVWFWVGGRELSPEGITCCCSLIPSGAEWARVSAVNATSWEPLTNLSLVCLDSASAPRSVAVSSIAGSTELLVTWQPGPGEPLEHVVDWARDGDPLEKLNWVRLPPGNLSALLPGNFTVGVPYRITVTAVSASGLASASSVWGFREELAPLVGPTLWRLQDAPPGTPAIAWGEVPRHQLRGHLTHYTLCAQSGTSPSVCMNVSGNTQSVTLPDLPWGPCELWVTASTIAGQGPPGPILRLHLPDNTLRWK

T3: recombinant cynomolgus monkey IL-27 (cynomolgus monkey, UniProt A0A2K5UBM6 29-244; A0A2K5WPB7 36-244)
T3 sequence (alpha): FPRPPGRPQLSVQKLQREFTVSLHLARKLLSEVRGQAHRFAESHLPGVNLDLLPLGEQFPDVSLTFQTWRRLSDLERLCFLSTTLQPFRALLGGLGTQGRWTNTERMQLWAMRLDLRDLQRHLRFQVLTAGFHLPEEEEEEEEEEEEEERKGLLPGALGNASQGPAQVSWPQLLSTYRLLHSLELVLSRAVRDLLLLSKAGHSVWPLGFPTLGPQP
T3 sequence (beta): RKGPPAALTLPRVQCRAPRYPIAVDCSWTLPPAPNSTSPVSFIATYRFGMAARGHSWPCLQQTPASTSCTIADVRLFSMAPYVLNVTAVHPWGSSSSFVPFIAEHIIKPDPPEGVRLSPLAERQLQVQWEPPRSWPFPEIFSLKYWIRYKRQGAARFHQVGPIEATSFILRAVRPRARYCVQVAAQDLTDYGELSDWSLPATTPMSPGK

T4: recombinant rat IL-27 (rat, UniProt D3ZPW3 29-234; M0RD76 19-228)
T4 sequence (alpha): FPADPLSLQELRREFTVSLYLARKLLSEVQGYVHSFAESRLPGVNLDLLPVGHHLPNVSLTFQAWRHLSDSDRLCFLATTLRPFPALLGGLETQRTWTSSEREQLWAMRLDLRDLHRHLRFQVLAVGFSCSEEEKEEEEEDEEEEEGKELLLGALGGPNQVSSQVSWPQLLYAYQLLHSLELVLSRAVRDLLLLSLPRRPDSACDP
T4 sequence (beta): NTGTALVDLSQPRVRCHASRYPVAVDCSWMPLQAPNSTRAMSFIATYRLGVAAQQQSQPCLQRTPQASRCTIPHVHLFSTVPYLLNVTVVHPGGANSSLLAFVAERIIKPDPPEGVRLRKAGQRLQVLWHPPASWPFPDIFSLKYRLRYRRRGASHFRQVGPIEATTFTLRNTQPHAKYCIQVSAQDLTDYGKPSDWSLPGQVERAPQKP

T5: recombinant mouse IL-27 (mouse, UniProt Q8K3I6 29-234; O35228 19-228)
T5 sequence (looked up) 1: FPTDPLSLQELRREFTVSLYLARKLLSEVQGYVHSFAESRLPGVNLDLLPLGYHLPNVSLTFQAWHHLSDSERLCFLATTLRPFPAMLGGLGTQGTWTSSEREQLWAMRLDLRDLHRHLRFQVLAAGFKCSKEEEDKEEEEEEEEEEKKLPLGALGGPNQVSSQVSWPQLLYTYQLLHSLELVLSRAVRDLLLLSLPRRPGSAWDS
T5 sequence (looked up) 2: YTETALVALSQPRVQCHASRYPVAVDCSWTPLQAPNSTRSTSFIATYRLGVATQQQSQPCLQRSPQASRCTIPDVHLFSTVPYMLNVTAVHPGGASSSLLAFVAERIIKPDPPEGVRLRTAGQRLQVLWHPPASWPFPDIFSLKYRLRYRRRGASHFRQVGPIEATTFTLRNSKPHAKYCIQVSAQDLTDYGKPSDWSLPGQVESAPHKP

B1: recombinant human IL-27 (heterodimer of IL-27p28 and EBI3) (ligand)
chain 1: FPRPPGRPQLSLQELRREFTVSLHLARKLLSEVRGQAHRFAESHLPGVNLYLLPLGEQLPDVSLTFQAWRRLSDPERLCFISTTLQPFHALLGGLGTQGRWTNMERMQLWAMRLDLRDLQRHLRFQVLAAGFNLPEEEEEEEEEEEEERKGLLPGALGSALQGPAQVSWPQLLSTYRLLHSLELVLSRAVRELLLLSKAGHSVWPLGFPTLSPQP
chain 2: RKGPPAALTLPRVQCRASRYPIAVDCSWTLPPAPNSTSPVSFIATYRLGMAARGHSWPCLQQTPTSTSCTITDVQLFSMAPYVLNVTAVHPWGSSSSFVPFITEHIIKPDPPEGVRLSPLAERQLQVQWEPPGSWPFPEIFSLKYWIRYKRQGAARFHRVGPIEATSFILRAVRPRARYYVQVAAQDLTDYGELSDWSLPATATMSLGK
notes: Bought recombinant protein (R&D Systems 2526-IL) in the cell and ForteBio assays; also called rhIL-27
B2: human EBI3 subunit (ligand)
chain: B1 chain 2
B3: human IL-27p28 subunit (ligand)
chain: B1 chain 1
B4: anti-IL-27 Ab3 (antibody, V domains shown)
VH: EVQLVESGGGLVKPGGSLRLSCAASGFTFRSYGMNWVRQAPGKGLEWVSSISSSSSYIYYADSVKGRFTISRDNAKNSLYLQMNSLRAEDTAVYYCARDGGRTSYTATAHNWFDPWGQGTLVTVSS
VL: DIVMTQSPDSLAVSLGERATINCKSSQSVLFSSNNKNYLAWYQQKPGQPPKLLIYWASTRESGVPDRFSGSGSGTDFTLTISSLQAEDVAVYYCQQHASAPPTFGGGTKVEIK
B5: anti-IL-27 Ab1 (antibody, V domains shown)
VH: B4 VH with S50G, S55G
VL: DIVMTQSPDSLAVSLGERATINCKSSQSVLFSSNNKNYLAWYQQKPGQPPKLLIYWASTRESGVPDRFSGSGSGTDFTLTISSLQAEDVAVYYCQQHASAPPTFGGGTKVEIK

How the values were obtained:
[1] = target: T1, gp130; test: SPR on gp130; trace (2), rhIL-27 alone, and trace (1), rhIL-27 + Anti-IL-27 Ab1, both rise to about 45 RU
[2] = target: T2, IL-27RA (WSX-1); test: SPR on WSX-1; trace (2), rhIL-27 alone, rises to about 210 RU; trace (1), rhIL-27 + Anti-IL-27 Ab1, stays at or below 0 RU
[3] = target: T1, gp130; test: Drawn table Ligand / Analyte / Result, ligand gp130, analyte IL-27 heterodimer; method not named for this figure (SPR is used in the same example)
[4] = target: B3; test: binding affinity data of FIG. 17; method not stated
[5] = target: T2, IL-27RA (WSX-1); test: Drawn table Ligand / Analyte / Result, ligand WSX-1, analyte EBI3 alone; method not named for this figure (SPR is used in the same example)
[6] = target: B3; test: Drawn table Ligand / Analyte / Result, ligand p28 held by Anti-IL-27 Ab3 (anti-p28), analyte EBI3; method not named for this figure (SPR is used in the same example)
[7] = target: T1, gp130; test: Drawn table Ligand / Analyte / Result, ligand gp130, analyte p28 alone; method not named for this figure (SPR is used in the same example)
[8] = target: B1; test: cell-based or functional assay
[9] = target: B1; test: cell-based or functional assay; remark: listed apart in the source
[10] = target: T3, recombinant cynomolgus monkey IL-27; test: cell-based or functional assay
[11] = target: T4, recombinant rat IL-27; test: cell-based or functional assay
[12] = target: T5, recombinant mouse IL-27; test: cell-based or functional assay

B1
Kd [1]: 4.1 nM | Kd [2]: 0.0206 nM | Kd [3]: 34 nM

B2
Kd [4]: 5 nM | Kd [5]: 3.81 nM | Kd [6]: 5.07 nM

B3
Kd [7]: ~1000 nM

B4
IC50, inhibition of phosphorylation of STAT1 in HUT-78 cells (flow cytometry) [8]: 0.08 µg/mL | IC50, inhibition of phosphorylation of STAT1 in U937 cells (flow cytometry) [8]: 0.081 µg/mL | IC50, inhibition of phosphorylation of STAT1 in pooled human PBMCs (flow cytometry) [8]: 0.141 µg/mL

B5
IC50, inhibition of phosphorylation of STAT1 in HUT-78 cells (flow cytometry) [8]: 0.095 µg/mL | IC50, inhibition of phosphorylation of STAT1 in U937 cells (flow cytometry) [8]: 0.096 µg/mL | IC50, inhibition of phosphorylation of STAT1 in pooled human PBMCs (flow cytometry) [8]: 0.0583 µg/mL | Average IC50, ng/mL; IL-27 pSTAT1 signaling inhibition in peripheral blood T cells, human [9]: 78.4 ng/mL | Average IC50, ng/mL; IL-27 pSTAT1 signaling inhibition in peripheral blood T cells, cynomolgus monkey [10]: 118 ng/mL | Average IC50, ng/mL; IL-27 pSTAT1 signaling inhibition in peripheral blood T cells, rat [11]: 273 ng/mL | Average IC50, ng/mL; IL-27 pSTAT1 signaling inhibition in peripheral blood T cells, mouse [12]: 1720 ng/mL
